Test system: human immunoglobulin E (IgE) (Homo sapiens)
Test: fluorescence bead-binding assay (thermal elution)
Conditions: IgE on beads; selection buffer as printed: 44.5 mM Tris base, 44.5 mM bisboronic acid (sic), 50 mM NaCl, pH 8.5; 0-100 nM DNA, room temperature, 2 h; IgE beads 3x10^4 per …

Row | Sequence | Kd [nM]
1 | GCCTGTTGTGAGCCTCCTGTCGAAGATGTAGGCCATCCTGTGGGGGTACGGGGCGGGCTGTGGTTTGAGCGTTTATTCTTGTCTCCC [SIGE5] | 10
2 | GCCTGTTGTGAGCCTCCTGTCGAAACTAGACCGGGAGCAAAACGGCAGATTGGGGCAAGGCCGGTTGAGCGTTTATTCTTGTCTCCC [SIGE7] | 18

— publication PMC4877600
